# Experimental data as given in PMC6082628.
# T1: Act1 SEFIR (mouse, UniProt Q8N7N6 391-537)
# T1 sequence: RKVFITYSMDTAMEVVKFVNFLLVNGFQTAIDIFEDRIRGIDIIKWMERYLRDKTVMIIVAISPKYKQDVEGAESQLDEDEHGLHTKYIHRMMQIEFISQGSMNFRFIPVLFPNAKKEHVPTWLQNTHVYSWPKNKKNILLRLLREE
# B1: Cxcl1 220-II (structured_RNA)
# RNA: GUUGGUAGGGCAUAAUGCCCUUUUACAUUCUUUAACCCUGUUUCUCCUGGUCUCGUCUCGCUCGGGACAGAGACGUUCAAAGGACUGUUACAAAUGAAGUAAAAAUAAAAG
# Experiments:
# [1] = target: T1, Act1 SEFIR; assay: EMSA
# [2] = target: T1, Act1 SEFIR; assay: EMSA; remark: listed apart in the source
# [3] = target: T1, Act1 SEFIR; assay: competition
# [4] = target: T1, Act1 SEFIR; assay: competition; remark: listed apart in the source
binder,measurement,setting,value
B1,binding result,[1],binds
CCUUGGACAUUUUGUGUCUAGUUGGUAGGGCAUAAUGGGGUUUUACA (ssRNA) [Stem-loop C CCC to GGG],binding result,[1],no binding
CCUUGGACAUUUUGUGUCUAGUUGGUACCCCAUAAUGGGGUUUUACA (structured_RNA) [SBE stem swap],binding result,[2],binds
CCUUGGACAUUUUGUGUCUAGUUGGUAAAACAUAAUGCCCUUUUACA (ssRNA) [SBE mutant C],binding result,[1],no binding
"CCUUGGACAUUUUGUGUCUAGUUGGUAGGGCAUAAUGCCCUUUUACA (structured_RNA, 2'-O-methyl on the first three residues at 5' and 3' ends (as ordered)) [SBE WT aptamer (competitor)]",binding result,[3],binds
"CCUUGGACAUUUUGUGUCUAGUUGGUAAAACAUAAUGCCCUUUUACA (ssRNA, 2'-O-methyl on the first three residues at 5' and 3' ends (as ordered)) [SBE mutant C aptamer (competitor)]",binding result,[4],no binding
